According to article PMC6198961, “The dimeric structure of wild-type human glycosyltransferase B4GalT1” (PLoS ONE, 2018):

Biological target: the molecule itself
Assay: SEC; gel filtration on a 24 ml Superdex 200 HR 10/30 column calibrated with γ-globulin (158 kDa), ovalbumin (44 kDa) and myoglobin (17 kDa); monomer and dimer

B1: catalytic domain of human B4GalT1 (Asp99-Ser398), wild type (domain or fragment, UniProt P15291 99-398, looked up)
chain: DSSPVVDSGPGPASNLTSVPVPHTTALSLPACPEESPLLVGPMLIEFNMPVDLELVAKQNPNVKMGGRYAPRDCVSPHKVAIIIPFRNRQEHLKYWLYYLHPVLQRQQLDYGIYVINQAGDTIFNRAKLLNVGFQEALKDYDYTCFVFSDVDLIPMNDHNAYRCFSQPRHISVAMDKFGFSLPYVQYFGGVSALSKQQFLTINGFPNNYWGWGGEDDDIFNRLVFRGMSISRPNAVVGRCRMIRHSRDKKNEPNPQRFDRIAHTKETMLSDGLNSLTYQVLDVQRYPLYTQITVDIGTPS
notes: EC 2.4.1.38), human, residues Asp99-Ser398: a piece of the stem domain (Asp99-Leu125) and the catalytic domain (Ser126-Ser398); the construct's calculated molecular weight is printed as 36.35 kDa; The tag is surmised from the nickel purification; In equilibrium between monomer and dimer; also called Beta-1,4-galactosyltransferase 1; recombinant B4GalT1; source: E. coli BL21(DE3) with the CyDisCo …
  stoichiometry N: 2
